Measurements from article PMC9482650, “Quantitative fragmentomics allow affinity mapping of interactomes” (Nature Communications, 2022).

T1: SYNJ2BP, P57105
T1 sequence (P57105 8-110, limits assumed, looked up): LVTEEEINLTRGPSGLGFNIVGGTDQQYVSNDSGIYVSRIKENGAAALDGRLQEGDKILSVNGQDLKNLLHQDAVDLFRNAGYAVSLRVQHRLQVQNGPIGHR

T2: APBA2_2, Q99767
T2 sequence (Q99767 654-744, limits assumed, looked up): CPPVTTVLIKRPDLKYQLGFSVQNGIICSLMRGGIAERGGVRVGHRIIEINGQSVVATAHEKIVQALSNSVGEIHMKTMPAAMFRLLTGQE

T3: LNX2_3, Q8N448
T3 sequence (Q8N448 463-564, limits assumed, looked up): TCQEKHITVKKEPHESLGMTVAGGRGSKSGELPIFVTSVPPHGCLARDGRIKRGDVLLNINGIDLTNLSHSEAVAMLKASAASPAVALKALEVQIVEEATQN

T4: PCLO, Q9Y6V0
T4 sequence (Q9Y6V0 4491-4600, limits assumed, looked up): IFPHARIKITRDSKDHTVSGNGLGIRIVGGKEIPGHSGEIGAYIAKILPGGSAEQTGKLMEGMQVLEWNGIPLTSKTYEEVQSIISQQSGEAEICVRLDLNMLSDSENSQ

T5: SHANK1, Q9Y566
T5 sequence (Q9Y566 658-767, limits assumed, looked up): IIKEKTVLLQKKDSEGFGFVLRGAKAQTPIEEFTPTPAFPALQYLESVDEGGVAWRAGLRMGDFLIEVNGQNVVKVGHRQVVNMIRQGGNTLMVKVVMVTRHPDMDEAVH

T6: HTRA4, P83105
T6 sequence (P83105 378-476, limits assumed, looked up): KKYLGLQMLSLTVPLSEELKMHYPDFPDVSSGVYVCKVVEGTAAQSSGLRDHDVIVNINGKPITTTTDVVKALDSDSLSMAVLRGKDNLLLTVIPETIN

T7: LRRC7, Q96NW7
T7 sequence (Q96NW7 1440-1537, limits assumed, looked up): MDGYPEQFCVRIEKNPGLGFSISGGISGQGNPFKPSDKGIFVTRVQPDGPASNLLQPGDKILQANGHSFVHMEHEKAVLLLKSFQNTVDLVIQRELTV

T8: ARHGAP21, Q5T5U3
T8 sequence (Q5T5U3 45-169, limits assumed, looked up): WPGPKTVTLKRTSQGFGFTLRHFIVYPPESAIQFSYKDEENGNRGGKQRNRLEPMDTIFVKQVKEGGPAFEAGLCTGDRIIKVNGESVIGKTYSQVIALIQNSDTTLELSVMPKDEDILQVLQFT

T9: PARD3B_1, Q8TEW8
T9 sequence (Q8TEW8 196-299, limits assumed, looked up): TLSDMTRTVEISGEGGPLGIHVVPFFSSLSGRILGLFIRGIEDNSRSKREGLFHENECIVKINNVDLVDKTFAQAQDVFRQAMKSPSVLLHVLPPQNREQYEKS

T10: DLG3_3, Q92796
T10 sequence (Q92796 374-475, limits assumed, looked up): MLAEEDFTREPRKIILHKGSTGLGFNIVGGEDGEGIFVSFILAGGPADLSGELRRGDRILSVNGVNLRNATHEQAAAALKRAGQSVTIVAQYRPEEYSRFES


Legend:
Test in all cases: holdup assay
Parameters in all cases: key: below the threshold = too weak to quantify, mostly under pKd 3.1 to 4
Conditions in all cases: plain residues with an end cap or a label only (N-terminal biotin on a linker: ttds)
SYNJ2BP, P57105 = target: T1, SYNJ2BP, P57105
APBA2_2, Q99767 = target: T2, APBA2_2, Q99767
MAGI1_2, Q96QZ7 = target: MAGI1_2, Q96QZ7
LNX2_3, Q8N448 = target: T3, LNX2_3, Q8N448
PCLO, Q9Y6V0 = target: T4, PCLO, Q9Y6V0
SHANK1, Q9Y566 = target: T5, SHANK1, Q9Y566
NHERF4_2, Q86UT5 = target: NHERF4_2, Q86UT5
Inadl_9, Q8NI35 = target: Inadl_9, Q8NI35
GORASP2, Q9H8Y8 = target: GORASP2, Q9H8Y8
HTRA4, P83105 = target: T6, HTRA4, P83105
DLG2_3, Q15700 = target: DLG2_3, Q15700
IL16_3, Q14005 = target: IL16_3, Q14005
LRRC7, Q96NW7 = target: T7, LRRC7, Q96NW7
MAGI3_2, Q5TCQ9 = target: MAGI3_2, Q5TCQ9
FRMPD4, Q14CM0 = target: FRMPD4, Q14CM0
IL16_4, Q14005 = target: IL16_4, Q14005
Inadl_6, Q8NI35 = target: Inadl_6, Q8NI35
MAGI1_1, Q96QZ7 = target: MAGI1_1, Q96QZ7
GOPC, Q9HD26 = target: GOPC, Q9HD26
FRMPD2_3, Q68DX3 = target: FRMPD2_3, Q68DX3
Inadl_4, Q8NI35 = target: Inadl_4, Q8NI35
MAGI2_4, Q86UL8 = target: MAGI2_4, Q86UL8
NOS1, P29475 = target: NOS1, P29475
ARHGAP21, Q5T5U3 = target: T8, ARHGAP21, Q5T5U3
LNX1_3, Q8TBB1 = target: LNX1_3, Q8TBB1
PARD3B_1, Q8TEW8 = target: T9, PARD3B_1, Q8TEW8
DLG3_3, Q92796 = target: T10, DLG3_3, Q92796

NOS1, P29475, sequence (P29475 9-101): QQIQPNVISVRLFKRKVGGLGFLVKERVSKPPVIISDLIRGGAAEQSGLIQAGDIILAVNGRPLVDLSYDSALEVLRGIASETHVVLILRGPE
IL16_3, Q14005, sequence (Q14005 1107-1207): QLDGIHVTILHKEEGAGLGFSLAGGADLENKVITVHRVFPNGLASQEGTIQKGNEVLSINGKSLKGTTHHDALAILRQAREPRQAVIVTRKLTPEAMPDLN
MAGI2_4, Q86UL8, sequence (Q86UL8 772-865): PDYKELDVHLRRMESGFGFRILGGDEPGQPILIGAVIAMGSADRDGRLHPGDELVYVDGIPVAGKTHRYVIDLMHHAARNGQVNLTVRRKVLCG
Inadl_9, Q8NI35, sequence (Q8NI35 1530-1615): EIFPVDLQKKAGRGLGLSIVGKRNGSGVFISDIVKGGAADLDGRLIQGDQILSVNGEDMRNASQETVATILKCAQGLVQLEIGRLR
LNX1_3, Q8TBB1, sequence (Q8TBB1 500-596): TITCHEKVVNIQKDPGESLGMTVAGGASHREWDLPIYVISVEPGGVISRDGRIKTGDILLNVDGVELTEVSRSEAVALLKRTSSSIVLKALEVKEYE
FRMPD2_3, Q68DX3, sequence (Q68DX3 1073-1166): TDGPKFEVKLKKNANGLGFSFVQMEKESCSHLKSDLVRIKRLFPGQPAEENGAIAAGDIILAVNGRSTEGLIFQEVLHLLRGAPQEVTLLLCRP
MAGI1_1, Q96QZ7, sequence (Q96QZ7 1-106): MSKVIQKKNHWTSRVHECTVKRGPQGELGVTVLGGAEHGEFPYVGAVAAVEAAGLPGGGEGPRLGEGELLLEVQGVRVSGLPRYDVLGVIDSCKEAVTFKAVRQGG
MAGI3_2, Q5TCQ9, sequence (Q5TCQ9 398-503): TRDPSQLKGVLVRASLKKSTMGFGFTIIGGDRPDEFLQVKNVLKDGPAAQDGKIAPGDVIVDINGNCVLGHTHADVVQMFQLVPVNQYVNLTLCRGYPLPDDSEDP
MAGI1_2, Q96QZ7, sequence (Q96QZ7 456-580): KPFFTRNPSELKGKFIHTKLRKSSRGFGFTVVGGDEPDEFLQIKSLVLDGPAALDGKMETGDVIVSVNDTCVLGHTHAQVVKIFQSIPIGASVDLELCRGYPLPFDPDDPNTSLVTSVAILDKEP
FRMPD4, Q14CM0, sequence (Q14CM0 67-160): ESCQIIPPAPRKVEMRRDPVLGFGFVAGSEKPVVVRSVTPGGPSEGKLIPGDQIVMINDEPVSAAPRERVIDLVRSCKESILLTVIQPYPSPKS
IL16_4, Q14005, sequence (Q14005 1229-1329): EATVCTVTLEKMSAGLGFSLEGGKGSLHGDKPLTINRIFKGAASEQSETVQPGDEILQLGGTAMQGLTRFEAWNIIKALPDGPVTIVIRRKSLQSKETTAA
NHERF4_2, Q86UT5, sequence (Q86UT5 220-308): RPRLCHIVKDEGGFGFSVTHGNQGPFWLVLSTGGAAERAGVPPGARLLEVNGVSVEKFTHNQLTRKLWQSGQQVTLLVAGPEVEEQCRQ
Inadl_6, Q8NI35, sequence (Q8NI35 1058-1167): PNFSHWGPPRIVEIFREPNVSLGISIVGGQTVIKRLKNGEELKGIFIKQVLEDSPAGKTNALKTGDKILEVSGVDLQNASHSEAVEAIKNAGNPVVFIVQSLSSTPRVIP
Inadl_4, Q8NI35, sequence (Q8NI35 547-651): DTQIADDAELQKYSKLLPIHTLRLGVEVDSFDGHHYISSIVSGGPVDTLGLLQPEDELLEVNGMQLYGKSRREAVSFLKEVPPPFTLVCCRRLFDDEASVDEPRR

pKd (SYNJ2BP, P57105)	pKd (APBA2_2, Q99767)	pKd (MAGI1_2, Q96QZ7)	pKd (LNX2_3, Q8N448)	pKd (PCLO, Q9Y6V0)	pKd (SHANK1, Q9Y566)	pKd (NHERF4_2, Q86UT5)	pKd (Inadl_9, Q8NI35)	pKd (GORASP2, Q9H8Y8)	pKd (HTRA4, P83105)	pKd (DLG2_3, Q15700)	pKd (IL16_3, Q14005)	pKd (LRRC7, Q96NW7)	pKd (MAGI3_2, Q5TCQ9)	pKd (FRMPD4, Q14CM0)	pKd (IL16_4, Q14005)	pKd (Inadl_6, Q8NI35)	pKd (MAGI1_1, Q96QZ7)	pKd (GOPC, Q9HD26)	pKd (FRMPD2_3, Q68DX3)	Binder	other results
4.97	below the threshold	4.82	below the threshold	below the threshold	below the threshold	below the threshold	3.54	3.81	3.46	4.49	below the threshold	below the threshold	5.22	below the threshold	3.49	below the threshold	below the threshold	3.53	below the threshold	KLVIKTETTV [RASSF6, Q6ZTQ3]	pKd (Inadl_4, Q8NI35): below the threshold; pKd (MAGI2_4, Q86UL8): 4.45; pKd (NOS1, P29475): 3.58; pKd (ARHGAP21, Q5T5U3): below the threshold; pKd (LNX1_3, Q8TBB1): below the threshold; pKd (PARD3B_1, Q8TEW8): below the threshold; pKd (DLG3_3, Q92796): 4.43
4.18	below the threshold	below the threshold	below the threshold	below the threshold	below the threshold	below the threshold	3.47	3.81	below the threshold	3.68	below the threshold	below the threshold	4.16	below the threshold	below the threshold	below the threshold	below the threshold	below the threshold	below the threshold	PFRSRSPSEV [GPR6, P46095]	pKd (Inadl_4, Q8NI35): below the threshold; pKd (MAGI2_4, Q86UL8): below the threshold; pKd (NOS1, P29475): 3.74; pKd (ARHGAP21, Q5T5U3): below the threshold; pKd (LNX1_3, Q8TBB1): below the threshold; pKd (PARD3B_1, Q8TEW8): 3.8; pKd (DLG3_3, Q92796): below the threshold
